This passage reports stoichiometry N results from article PMC12804668.

In the test the target is Ec78 PtuA ATPase (E. coli ECONIH5). The experiment in a line: cryo-EM structure.

A word on the stoichiometry N: it is the number of molecules, sites or subunits per partner or assembly.

Regarding Ec78 PtuA ATPase (enzyme), the stoichiometry N is 4.
